Data on one sequence can be found in paper PMC8002998.

The data set addresses T1, OhrR-C (chromosomal OhrR) (Acinetobacter baumannii ATCC 19606) (UniProt A0A077GRS4).
T1 sequence: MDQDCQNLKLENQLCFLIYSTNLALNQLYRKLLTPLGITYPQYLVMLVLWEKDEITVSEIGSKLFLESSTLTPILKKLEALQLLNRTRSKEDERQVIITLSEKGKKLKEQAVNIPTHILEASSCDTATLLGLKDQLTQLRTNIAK
Nature of the data set: EMSA. Particulars: 20 mM Tris-HCl pH 7.5, 100 mM MgCl2, 150 mM KCl, 50 mM EDTA, 12.5% glycerol, 250 uM DTT, 830 ng/mL poly(dI-dC), 250 ng/mL BSA, 50 nM DNA; room temperature …. In general terms: In EMSA bound probe runs differently from free probe, usually more slowly.

Take “TGTATATTACCTTGCTTAATATTATATTGTGTAAAATATAATTGCACACAATTAAATATAGGTCAATTATTTTCCTTTGTTTTTTATTTAACATAATGGGCGTTATATGAAATTCAAAAAAATGATACTATTTTTGTGATAATTAAATAAATTTTAGGTGAACATAAGTTAAATAGAGCTTATATCGGCC (double strand) [Pohr-p]”: the binding result is given as “binds more weakly”.
